Key:
[1] = biological target: JellyOp (opsin-based pigment from the box jellyfish Carybdea rastonii) (Carybdea rastonii)
[2] = biological target: JellyOp(K72T) (Carybdea rastonii)
[3] = biological target: JellyOp (opsin-based pigment from the box jellyfish Carybdea rastonii) (Carybdea rastonii); remark: listed apart in the source

Sequence of JellyOp (opsin-based pigment from the box jellyfish Carybdea rastonii) (Carybdea rastonii) (B6F0Y5 entry or part of it): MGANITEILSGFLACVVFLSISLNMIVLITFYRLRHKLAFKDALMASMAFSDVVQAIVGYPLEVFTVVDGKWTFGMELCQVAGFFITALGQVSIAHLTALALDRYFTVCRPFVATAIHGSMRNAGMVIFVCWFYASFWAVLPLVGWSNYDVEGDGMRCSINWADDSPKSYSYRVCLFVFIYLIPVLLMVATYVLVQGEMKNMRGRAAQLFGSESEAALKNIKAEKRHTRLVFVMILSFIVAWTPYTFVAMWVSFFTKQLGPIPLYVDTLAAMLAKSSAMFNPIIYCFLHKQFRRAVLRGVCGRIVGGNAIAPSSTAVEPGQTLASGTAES

Substance: Gαs (from UniProt P63092 1-394) (natural protein)
- time constant of inactivation (TauOFF) of the JellyOp GIRK response by high-intensity violet light (405 nm) [1]: 252 ms
- fast time constant of GIRK current inactivation by violet light (double-exponential decay) [2]: 281 ms
- slow time constant of GIRK current inactivation by violet light (double-exponential decay) [2]: 8.4 s
- time constant of onset (TauON) of the light-triggered GIRK current in cells expressing JellyOp [3]: 34 ms
